Assay results reported in the supplement of paper PMC12667976.
± gives the standard error.

B1: library; numbered along this chain (parent)
chain: MATDAALRRLLRLHRTEIAVAVDSAFPLLHALADHDVVPEDKFQETLHLKEKEGCPQAFHALLSWLLTQDSTAILDFWRVLFKDYNLERYGRLQPILDSFPKDVDLSQPRKGRKPPAVPKALVPPPRLPTKRKASEEARAAAPAALTPRGTASPGSQLKAKPPKKPESSAEQQRLPLGNGIQTMSASVQRAVAMSSGDVPGARGAVEGILIQQVFESGGSKKCIQVGGEFYTPSKFEDSGSGKNKARSSSGPKPLVRAKGAQGAAPGGGEARLGQQGSVPAPLALPSDPQLHQKNEDECAVCRDGGELICCDGCPRAFHLACLSPPLREIPSGTWRCSSCLQATVQEVQPRAEEPRPQEPPVETPLPPGLRSAGEEVRGPPGEPLAGMDTTLVYKHLPAPPSAAPLPGLDSSALHPLLCVGPEGQQNLAPGARCGVCGDGTDVLRCTHCAAAFHWRCHFPAGTSRPGTGLRCRSCSGDVTPAPVEGVLAPSPARLAPGPAKDDTASHEPALHRDDLESLLSEHTFDGILQWAIQSMARPAAPFPS

Variants of: B1
Test: AIRE transcriptional activation functional score (insulin promoter-GFP; nonsense median 0, synonymous median 1) (normalised score); higher = higher AIRE activity (more reporter activation)
Settings: with insulin promoter-GFP reporter in HEK293
Summary of the method: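 Using Bxb1 recombinase, codon-optimized NNN-codon libraries for three AIRE regions were inserted into Flp-In T-REx HEK293 landing-pad cells with an insulin core promoter-GFP reporter. After integrants (mCherry+, BFP−) were sorted at day 7 and expanded for 7 days, the top 10% GFP and unselected integrant populations underwent tile-sequencing. Functional scores are wild-type-subtracted enrichments of variants in select over non-select samples. A cutoff of 10 counts per million in non-select applied, and values were rescaled (nonsense median 0, synonymous median 1) and averaged over biological replicates.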

| Variant | AIRE transcriptional activation functional score |
| --- | --- |
| C472H | -0.28 ± 0.12 |
| A58N | -1.13 ± 0.62 |
| D98N | 0.841 ± 0.68 |
| D98Y | 0.0432 ± 1.2 |
| K253M | 1.04 ± 0.18 |
| G424M | 0.308 ± 0.09 |
| G424Q | 1.49 ± 0.33 |
| V487K | 0.821 ± 0.28 |
| H454R | -0.0692 ± 0.18 |
| C449I | -0.224 ± 0.16 |
| S239V | 1.13 ± 0.54 |
| T364H | 1.07 ± 0.46 |
| L7V | -0.199 ± 0.32 |
| L7D | -0.451 ± 0.08 |
| T441W | 1.57 ± 0.035 |
| E167M | 1.68 ± 0.21 |
| E167S | 0.898 ± 0.7 |
| T334S | 0.928 ± 0.21 |
| W335C | 1.24 ± 0.1 |
| C475L | 0.0763 ± 0.17 |
| C475E | -0.103 ± 0.23 |

| Variant | AIRE transcriptional activation functional score |
| --- | --- |
| L32M | -0.0821 ± 0.26 |
| Q173F | 1.97 ± 0.15 |
| L285H | 0.689 ± 0.094 |
| E229Q | 1.13 ± 0.11 |
| E229H | 0.361 ± 0.094 |
| K259E | 0.714 ± 0.14 |
| K259S | 0.917 ± 0.14 |
| K259D | -0.753 ± 0.084 |
| A451Y | 0.593 ± 0.28 |
| E296W | 1.44 ± 0.05 |
| E296T | 0.948 ± 0.19 |
| G208V | 0.173 ± 0.17 |
| A284C | 0.943 ± 0.11 |
| T344I | 0.748 ± 0.15 |
| D297E | 0.884 ± 0.34 |
| K159W | 1.36 ± 0.054 |
| R12I | -0.464 ± 0.25 |
| R12L | 0.419 ± 0.69 |
| A140D | 1.07 ± 0.13 |
| A140E | 1.36 ± 0.42 |
| P492E | 0.938 ± 1.1 |

| Variant | AIRE transcriptional activation functional score |
| --- | --- |
| S476Y | 1.19 ± 0.18 |
| R15V | 0.0544 ± 0.6 |
| C311Y | 0.792 ± 0.094 |
| Q534L | 0.314 ± 0.14 |
| D410C | 1.12 ± 0.14 |
| S278R | 0.819 ± 0.16 |
| S278K | 1.28 ± 0.24 |
| S278N | 0.723 ± 0.3 |
| S278V | 1.09 ± 0.31 |
| L409Q | 0.636 ± 0.19 |
| L409I | 1.16 ± 0.21 |
| L409G | 0.891 ± 0.22 |
| M194H | 0.96 ± 0.21 |
| A541V | 1.1 ± 0.19 |
| R328T | 0.764 ± 0.2 |
| R328Q | 0.659 ± 0.048 |
| R328M | 1.1 ± 0.11 |
| R328F | 0.907 ± 0.48 |
| S64Q | -0.939 ± 0.095 |
| S324D | 1.13 ± 0.35 |
| S324V | 0.994 ± 0.27 |

| Variant | AIRE transcriptional activation functional score |
| --- | --- |
| S324F | 1.09 ± 0.27 |
| S324E | 0.773 ± 0.19 |
| G313W | 1.27 ± 0.052 |
| S196I | 0.678 ± 0.17 |
| S196C | 1.24 ± 0.029 |
| S135M | -0.155 ± 0.32 |
| L397W | 0.989 ± 0.042 |
| G204P | 1.08 ± 0.32 |
| S506Q | 0.92 ± 0.13 |
| V37R | 0.122 ± 0.4 |
| E485N | 0.645 ± 0.4 |
| A138C | 1.51 ± 0.25 |
| A138V | 1.1 ± 0.37 |
| G462L | 0.83 ± 0.49 |
| K133Q | -0.167 ± 0.29 |
| D304Y | 0.808 ± 0.47 |
| A6M | 0.372 ± 0.17 |
| A6Y | 2.12 ± 1.1 |
| S287F | 0.994 ± 0.031 |
| S287C | 1.07 ± 0.13 |
